From the DeepSol protein solubility set

Test: soluble on expression in E. coli; label from the status in PepcDB or PDB records

Soluble on expression in E. coli, not soluble:
MSTQEDFLKRLESVTSRLEAIAGQKPALAPKPTNLGGPSAYSLHFFFALQFYFSSSPPTSTMDSLYYSAPRPFNKYPRGYRPVTDSTQDLRSFGGGLRPSSSWSSFPQQVVIDQRSATLPHFPSSCVSPVSPTSPVDRNTNYWTAEEPPRSRRPIRSESNSTLFDNNFSPRELSPLSVASEYCNNPQPASMYGHRSVQSPVPAFQDAPPRGYDNVPPPQSYKQPTHPSPSQRETDFLRNLQRQKAEAHNMSSSWYAGDQSSRQTDFGTLPSPQHYNSNSSDHHPPRRLAKTQSDLSFDSLNNTYFNNTSNHTPSNTFLNHSTVDSHNNSSGQLHNSINNYTASTNGNQGHRLDGFFRNRVIEPNWMTDPPPPKSFREDYIIRNAPLNSNLNSDFERFRLEPTYREPRGNSLVSEQPNFRSYHNDEPTQEQPNPRYQRSSSNFMQQRDPSPVRSPPIISYAQQSNPFSFPNPINQVNYNQEDHSSRVSTGGYQDRRVAQAPKEATTNVYQNVPAAAAVNFREKERPTSQYLESNRNSAAFPNEPIKLTNDRVLRIHPHQQVQDQYHHHQMPEEPHYPQPHQPIQQSQRARIQSPLRDFARLTSPIREVAPQPYHPPQAQNQNQNPERIFSPVESKVFNRSGPTVINGFTSNRHTYNSHTDDFDSRNRRDSSQPPVAIIEPNINVHMPSDPMPYNKPHFGHGHGHSNGNNNVHSVKPTSHYSNPTFSPTSTFSPNSNYDNDNDSDLDIEEMARRALPRYLRDNEKTGRHRNLYGDNLHGILIKNPSLHRSSSKKVVFIDQNKASAAASAGDSGEVPAHVRAYDDAIEEPLANWSKLTDQLGGDLAAVKPKVLAMFASMRNYLWSAAGKSEPSAEEAQKMLTPVINLLGEINNFKDTKRKTPHWNHLNSVAEALPALGWVTVKKTPAPYVKEFIEAAQFYINPILREFKETDPRHVEWTKAWKAVFEEMQKFVRQVHTTGLVWNSAPGAAPDASASAPSAAAPSAPKAPAGPGGPPPPPPPPPADFFANIAPPPVDADKASRDALFASLNQGEGVTSRLKKVTADMQTHKNPNLRGTAVVPAAGASQGGSSPAKPAAPVRKPPHKELENGKQWIVEYFVNDPNIVLDVADKKQTVYIYRCENSVIKVNGKANSITLDGCKKTSVVFDALVAQCETVNCQSVQIQTLGELPTLSIQKTDGCQVYLSKVAQGCEIVTSKSSEMNISVQTNDDGDYSEFPVPEQFKTTFVNGKLVTVVSDIC, MCEFKDFRRNIPCFKEYDENSFIGKWYDDGVWDDEEYWKLENDLIEVRKKYPYPMDIPRDIVIGIGTIIDFLMVQNWKLFEIKASTWLPKSVKINERYERFRVMLRYIFTDLDVEDWKFFYFPIQHSKGRLRRKV, MGSDKIHHHHHHMINSTFLTNRVFSTWYYFSLLLYKEKGCDLVKTPKIVVLGAGYGGMITTVRLQKALSVNEAEITLVNNNSYHYQATWLHESAAGTLQDEKICLDIQDVIDTNKVNFVQDTVVEIKAAEKRIILKDGELEYDYLVIGLGFESETFGITGLKEHAFSIANINATRQIREHMEASFAKYADEKRDELVTIVVGGAGFTGIEYVGELANRVPELCKQYNVPREKARIICVEAAPTALPGFDPALVEYAVKQLEKKGVEFRIGTAIKEATEEGIIVANGDDTELIKSETVVWAAGVRGNGIVEESGFEAMRGRVKVDEYMHAPGYEDVFMVGDAALIINEEINRPYPPTAQIAIQQGYNIAHNLTVLVRGKGEMKKFVFDNKGSVCSLGHDDAMGVVMGKKLTGWKASFMKKVIDNRYLFLLGGPLLVLKKGKLKFF, MGSDKIHHHHHHMEILSVGEKIKRARIYKRLTLKDICDDKVSVSKMSCIENGKITPDNEILEFVAKKLNVALDYLKYDVKDQFQSNLDNLKDIEEGKKDEYLRYNVYYAEQYEYYDIAFQFMHELFNLYVNKNKLDIVQSLTSEYYDICRKVTDCDNRSMYNLDIGKYLLASREYRQAINYYSRVRKELKTGFSENKKRIKMLIESYYYETLSYILCEDYDNAYELEKELLELIEYVDTDNQHAKIYSVMMFLCLKKNIDQFDYYKEKIENYCDINSEIKARVMYVCALKMINDEKVEEAKGYIAKALEQFQGKIENKYIPFIVELVNEVSRRNNLERYRGICDLILDYSIGIENSVLMERCYYLKSRIFKASNDLESYEMYMNLALDLLIKSGNEDDIYTRYMEMGNMYSTLGNVKDALRYFNLAINMSNKM
